Assays:
[1] = molecular target: K104C IN 1–105 (Moloney murine leukemia virus); assay: SEC; Superdex S-200 of the BMOE-crosslinked reaction mixture of K104C IN 1–105; data not shown
[2] = molecular target: K104C IN 1–105 (Moloney murine leukemia virus); assay: cross-linking; 50 μM IN 1–105 K104C with 1 mM BMOE (8 Å) or BM(PEG)2 (14.7 Å), 50 mM Tris–HCl pH 7.0, 10 μM ZnSO4, on ice 60 min, quenched with 10 mM DTT; SDS-PAGE
[3] = molecular target: Wild type IN 1–105, the isolated N-terminal domain (NTD) of Moloney murine leukemia virus integrase (Moloney murine leukemia virus) (UniProt P03355); assay: SEC; Superdex S-200, nondenaturing, 10 mM Tris pH 7.5, 0.5 M NaCl, 1 mM DTT, 5% glycerol; BS3-crosslinked and unmodified IN 1–105 compared
[4] = molecular target: Wild type IN 1–105, the isolated N-terminal domain (NTD) of Moloney murine leukemia virus integrase (Moloney murine leukemia virus) (UniProt P03355); assay: cross-linking; 56 μM IN 1–105 with 100 μM BS3 (0 to 300 μM tested), 50 mM Hepes pH 7.8, 25°C, 35 min, stopped with 50 mM lysine pH 8.0; SDS-PAGE; monomer and dimer bands digested with trypsin or chymotrypsin and read by LC-MS/MS or MALDI-TOF/TOF

K104C IN 1–105 (domain or fragment)
stoichiometry N [1]: 2 | crosslinking extent with BM(PEG)2 [2]: 70% | crosslinking extent with BMOE [2]: 65% | stoichiometry N [2]: 2

Wild type IN 1–105, the isolated N-terminal domain (NTD) of Moloney murine leukemia virus integrase (from UniProt P03355 2-106) (domain or fragment)
percent eluting at the position of the dimer [3]: 95% | stoichiometry N [3]: 2 | percent of the protein crosslinked [4]: 50% | stoichiometry N [4]: 2

Reference: paper PMC3750625
